B2: His-DAPLE-CT (aa 1650-2028) (other)
chain: GTAPPYVGVRPCSASPSSEMVTLEEFLEESNRSSPTHDTPSCRDDLLSDYFRKASDPPAIGGQPGPPAKKEGAKMPTNFVAPTVKMAAPTSEGRPLKPGQYVKPNFRLTEAEAPPSVAPRQAQPPQSLSLGRPRQAPVPPASHAPASRSASLSRAFSLASADLLRASGPEACKQESPQKLGAPEALGGRETGSHTLQSPAPPSSHSLARERTPLVGKAGSSCQGPGPRSRPLDTRRFSLAPPKEERLAPLHQSATAPAIATAGAGAAAAGSGSNSQLLHFSPAAAPAARTKPKAPPRSGEVATITPVRAGLSLSEGDGVPGQGCSEGLPAKSPGRSPDLAPHLGRALEDCSRGSVSKSSPASPEPGGDPQTVWYEYGCV
notes: Recombinant, purified from E. coli; also called His-DAPLE-CT WT; DAPLE-CT WT; not shown: His tag and vector residues of pET28b
B4: His-Gαi3 (GDP-loaded) (other, rat, UniProt P08753 1-354, looked up)
chain: MGCTLSAEDKAAVERSKMIDRNLREDGEKAAKEVKLLLLGAGESGKSTIVKQMKIIHEDGYSEDECKQYKVVVYSNTIQSIIAIIRAMGRLKIDFGEAARADDARQLFVLAGSAEEGVMTSELAGVIKRLWRDGGVQACFSRSREYQLNDSASYYLNDLDRISQTNYIPTQQDVLRTRVKTTGIVETHFTFKELYFKMFDVGGQRSERKKWIHCFEGVTAIIFCVALSDYDLVLAEDEEMNRMHESMKLFDSICNNKWFTDTSIILFLNKKDLFEEKIKRSPLTICYPEYTGSNTYEEAAAYIQCQFEDLNRRKDTKEVYTHFTCATDTKNVQFVFDAVTDVIIKNNLKECGLY
notes: also called recombinant His-Gαi3; not shown: His tag

Assay [1] deals with B4. Briefly: GST pulldown with 0.01-3 µM His-Gαi3, band intensities fitted to a one-site binding curve (FIG. 1F).
In assay [2] the target is T1, GST-Gαi3 preloaded with GDP (inactive) (rat, UniProt P08753 1-354).
T1 construct: Immobilized on glutathione beads; Same polypeptide as m11, other nucleotide state; also called GST-Gαi3 WT; not shown: glutathione S-transferase tag of the pGEX-4T-1 vector
Description: displacement of Gβγ from preformed GST-Gαi3·Gβγ complexes, immunoblot fitted to a single-site competition curve (FIG. 3C). From the text: FIGS. 3A-3J. DAPLE's GBA motif triggers the release of ‘free’ Gβγ subunits, which in turn enhance Rac1 and PI3K-Akt signaling. (A) DAPLE's GBA motif and Gβγ subunits are predicted to dock onto an overlapping binding site on Gαi. Binding areas (in red) for DAPLE (left) or Gβγ (right) on Gαi (solid grey) were extracted from a homology-based model of DAPLE-Gαi3 and the crystal structure of the Gαi1·Gβγ complex (PBD: 1GG2), respectively. (B, C) DAPLE displaces Gβγ subunits from Gαi3 via its GEF motif. GST-Gαi3·Gβγ preformed complexes immobilized on glutathione beads were incubated with increasing concentrations of His-DAPLE-CT WT or F1675A (FA). Bound proteins were analyzed by immunoblotting (B) and Gβγ binding data fitted to a single-site competition curve (C). Mean±S.E.M. of 3 independent experiments. […] Control (shLuc) or two clones of DAPLE-depleted HeLa cell lines (shDAPLE 1 and 2) (described in FIGS. 10A & 10B) were incubated in 2% serum media (D) or starved and treated (+) or not (β) with Wnt5a ([…]) for 5 min (E) and analyzed for Rac1 activation by pulldown assays using GST-PBD. […] DAPLE-depleted (shDAPLE 1) HeLa cells transiently transfected with myc-DAPLE-WT or FA were starved and stimulated with Wnt5a and analyzed for Rac1 activation as in E. (G, H) DAPLE's GBA motif is required for activation of PI3K-Akt signaling in HeLa cells, as determined by phosphorylation of Akt at 5473. […]
A general note: Immunoblotting shows a protein as a band on a membrane.

Assay [3] deals with B4. Briefly: cell-based or functional assay.
The target in assay [4] is B2. Briefly: GST pulldown, purified proteins, inactive or active conformations (FIG. 1H). Here is the method:
Equal aliquots of lysates of HEK293 cells expressing Gαi3-FLAG were incubated with anti-FLAG mAb or control IgG and protein G beads. Immune complexes were analyzed for DAPLE and Gαi3 (FLAG) by immunoblotting (IB). Gβ was monitored as positive Gαi3-binding control. […] Resin-bound proteins were eluted, separated by SDS-PAGE and analyzed by Ponceau S-staining and immunoblotting (IB) with the indicated antibodies. No binding to GST alone was detected. […] No binding of myc-DAPLE or Gβ to GST alone was detected. […] Insert, Purified GST-DAPLE-CT and GST-GIV (aa 1671-1755, containing the GBA motif) immobilized on glutathione-agarose beads were incubated with increasing amounts (0.01-3 μM) of purified His-Gαi3 (GDP-loaded) and binding analyzed by immunoblotting as described in (D). No binding to GST alone was detected at the highest His-Gαi3 concentration tested. Graph, Gαi3 binding was quantified by measuring band intensities and data fitted to a single-site binding hyperbola (DAPLE=BLUE, GIV=RED) to determine the equilibrium dissociation constants (Kd). Mean±S.E.M of 4 independent experiments. (G) DAPLE binds to all three Gαi subunits. […] (H) DAPLE selectively binds to Gαi, but not Gao.

The target in the next assay is T2, GST-FZD7-CT (UniProt P08515 1-218 = GST).
T2 construct: Immobilized on glutathione beads directly from bacterial lysates; also called GST-FZD7R-CT; Fzl17-CT
Briefly: GST-FZD7-CT pulldown of His-Gαi3 with His-DAPLE-CT WT against His-Gαi3 alone (FIG. 4E).

A further assay concerns the target T3, GST-DAPLE-CT (human, UniProt Q9P219 1650-2028).
T3 construct: also called GST-DAPLE-CT WT; not shown: glutathione S-transferase tag of the pGEX-4T vector
T3 sequence: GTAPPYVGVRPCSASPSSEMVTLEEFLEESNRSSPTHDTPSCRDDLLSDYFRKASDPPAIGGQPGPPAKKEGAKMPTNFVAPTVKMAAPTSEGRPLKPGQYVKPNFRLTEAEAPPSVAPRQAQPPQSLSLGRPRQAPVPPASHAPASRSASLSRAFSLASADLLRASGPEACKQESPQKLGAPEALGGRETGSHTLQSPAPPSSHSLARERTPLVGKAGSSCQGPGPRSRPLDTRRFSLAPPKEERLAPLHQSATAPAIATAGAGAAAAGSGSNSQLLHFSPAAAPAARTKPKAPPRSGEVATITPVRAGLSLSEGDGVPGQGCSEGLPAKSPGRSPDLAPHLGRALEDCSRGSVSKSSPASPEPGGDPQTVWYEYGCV
Briefly: GST pulldown with 0.01-3 µM His-Gαi3, band intensities fitted to a one-site binding curve (FIG. 1F).

The target in assay [5] is T4, myc-DAPLE full length F1675A (human, UniProt Q9P219 1-2028).
T4 construct: Expressed in Cos7 cells; used as cell lysate; also called myc-DAPLE FA; DAPLE-FA; not shown: N-terminal myc tag of myc-pcDNA 3.1 (+)
Description: co-immunoprecipitation with anti-FLAG mAb from Cos7 cells (FIG. 2E).

T2 sequence (P08515 whole entry): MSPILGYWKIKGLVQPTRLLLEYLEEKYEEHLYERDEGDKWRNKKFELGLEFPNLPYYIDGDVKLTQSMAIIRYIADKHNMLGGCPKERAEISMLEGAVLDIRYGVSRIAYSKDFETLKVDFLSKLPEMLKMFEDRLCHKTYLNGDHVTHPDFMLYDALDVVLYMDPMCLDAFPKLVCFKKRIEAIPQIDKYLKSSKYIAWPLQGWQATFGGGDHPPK

B1: GST-GIV (aa 1671-1755) (other, UniProt Q3V6T2 1671-1755, looked up)
chain: IKTGSPGSEVVTLQQFLEESNKLTSVQIKSSSQENLLDEVMKSLSVSSDFLGKDKPVSCGLARSVSGKTPGDFYDRRTTKPEFLR
notes: range 1671-1755; also called GST-GIV CT 1671-1755 aa; not shown: glutathione S-transferase tag
The term Kd denotes the concentration at which binding is half-saturated. In the assay with His-Gαi3 (GDP-loaded) [1], B1 gave a Kd of 240 nM.

As usually defined, the IC50 is the point on the concentration scale where inhibition reaches its midpoint. Consider B2, for which, in assay [2], the IC50 was 160 nM. Besides, in the assay with His-Gαi3 (GDP-loaded) [3], the “EC50 of the acceleration of Gαi3 steady-state GTPase activity” value is 250 nM and the “rate of steady-state GTP hydrolysis of His-Gαi3” value was about 3 fold.

B3: GST-Gao (other, rat, UniProt P59215 1-354, looked up)
chain: MGCTLSAEERAALERSKAIEKNLKEDGISAAKDVKLLLLGAGESGKSTIVKQMKIIHEDGFSGEDVKQYKPVVYSNTIQSLAAIVRAMDTLGVEYGDKERKADSKMVCDVVSRMEDTEPFSAELLSAMMRLWGDSGIQECFNRSREYQLNDSAKYYLDSLDRIGAADYQPTEQDILRTRVKTTGIVETHFTFKNLHFRLFDVGGQRSERKKWIHCFEDVTAIIFCVALSGYDQVLHEDETTNRMHESLMLFDSICNNKFFIDTSIILFLNKKDLFGEKIKKSPLTICFPEYPGSNTYEDAAAYIQTQFESKNRSPNKEIYCHMTCATDTNNIQVVFDAVTDIIIANNLRGCGLY
notes: also called Gαo; not shown: glutathione S-transferase tag of the pGEX-4T-1 vector
With B3, the binding result in assay [4] is “no binding”. As for B4, the “fold increase of binding in the presence of DAPLE-CT WT” value with GST-FZD7-CT was about 5 fold. This molecule showed a Kd in the assay with GST-DAPLE-CT of 110 nM.

B5: Gαi3-FLAG (other, rat, UniProt P08753 1-354, looked up)
chain: MGCTLSAEDKAAVERSKMIDRNLREDGEKAAKEVKLLLLGAGESGKSTIVKQMKIIHEDGYSEDECKQYKVVVYSNTIQSIIAIIRAMGRLKIDFGEAARADDARQLFVLAGSAEEGVMTSELAGVIKRLWRDGGVQACFSRSREYQLNDSASYYLNDLDRISQTNYIPTQQDVLRTRVKTTGIVETHFTFKELYFKMFDVGGQRSERKKWIHCFEGVTAIIFCVALSDYDLVLAEDEEMNRMHESMKLFDSICNNKWFTDTSIILFLNKKDLFEEKIKRSPLTICYPEYTGSNTYEEAAAYIQCQFEDLNRRKDTKEVYTHFTCATDTKNVQFVFDAVTDVIIKNNLKECGLY
notes: Expressed in HEK293 or Cos7 cells; immunoprecipitated with anti-FLAG mAb; also called FLAG-Gαi3; not shown: FLAG tag
With B5, the binding result in assay [5] is on record as “no binding”.

(Values after patent publication US20160362464A1 (University of California, published 2016).)
